In article PMC6934829, “Multi-Factor Regulation of the Master Modulator LeuO for the Cyclic-(Phe-Pro) Signaling Pathway in Vibrio vulnificus” (Scientific Reports, 2019):

Experiments:
[1] = molecular target: T1, ToxR-C (C-terminal periplasmic domain of ToxR) (Vibrio vulnificus, UniProt Q9RP86); test: isothermal titration calorimetry; assay type: binding
T1 construct: C-terminal His-tag (pET21a), expressed in E. coli BL21(DE3)

[2] = molecular target: C-terminal periplasmic domain of ToxR (ToxR-C) (Vibrio vulnificus); test: ITC; 0.2 mM ToxR-C in the cell, 10 mM cFP or linear FP in the syringe, 2 ul injections at 2 min intervals, 25 °C, 20 mM Na2HPO4 pH 7.8, 1 mM EDTA; simple binding model

Row | Molecule | Kd [1] [µM] | Kd [2] [µM] | stoichiometry N [2]
1 | O=C1N[C@@H](Cc2ccccc2)C(=O)N2CCC[C@@H]12 [cFP] | 42 | – | –
2 | cyclic-L-phenylalanine-L-proline (cFP) (peptide) | – | 42 | 1
